Data published in the RNAGym collection of RNA variant scans (doi:10.7554/elife.80360).

B1: HDV Ribozyme (parent)
chain: GGCCGGCAUGGUCCCAGCCUCCUCGCUGGCGCCGGCUGGGCAACAUUCCGAGGGGACCGUCCCCUCGGUAAUGGCGAAUGGGACCCA

Variants of: B1
Experiment: self-cleavage, relative activity (ratio to wild type); higher = more cleavage; co-transcriptional
Variant GGCCGACAUGGUCCCAGCCUCCUCGCUGGCGCCGGCUGGGCGACAUUCCGAGGGGACCGUCCCCUCGGUAAUGGCGAAUGGGACCCA [G6A A42G] has a self-cleavage of 0. GGCCGGCAUGGUCCCAGCCUCCUCGCUGGCGCCGGCUGGGCAACAUUCCGAGGGGACCGUCCCCUCGGUAAUGGCGCAUGGGACGCA [A77C C85G] gave a self-cleavage of 0.492. Work on GGCAGGCAUGGUCCCAGCCUCCUCGCUGGCGCCGGCUGGGCAACGUUCCGAGGGGACCGUCCCCUCGGUAAUGGCGAAUGGGACCCA [C4A A45G] yielded a self-cleavage of 0.138. GGCCGGCAUGGUCCCAGCCUCCUCGCUGGCGCCGGCUGGGCAACAUUCCGAAGGGACCGUCCCCUCGGUAAUGGCGAAUGGGCCCCA [G52A A83C] gave a self-cleavage of 0.374. GGCCGGCAUGGUCCCAGCCUCCUCGCUGGCGCCGGCUGGGCAACAUUCCGAGGGGGCCGUCCCCGCGGUAAUGGCGAAUGGGACCCA [A56G U65G] showed a self-cleavage of 0.957. Work on GGCCGGCUUGGUCCCAGCCUCCUCGCUGGCGCCGGCUGGGCAACAUUCCGAGGGGACCGUCCCCUCGGAAAUGGCGAAUGGGACCCA [A8U U69A] yielded a self-cleavage of 0.962. Variant GGCCGGCAUGGUCCCAGCCUCCUCGCUGGCGCCGGCUGGGCAACAUUCCGACGGGACCGUCCCCUCGGUAAUGGCGAAUGGGAACCA [G52C C84A] has a self-cleavage of 0.791. For GGCCGGCUUGGUCCCAGCCUCCUCGCUGGCGCCGGCUGGGCAACAUUCCGAGGGGACCGUCCCCACGGUAAUGGCGAAUGGGACCCA [A8U U65A], the self-cleavage was 0.617. With GGCUGGCAUGGUCCCAGCCUCCUCGCUGGCGCCGGCUGGGCAACAUUCCGAGGGGACCGUCCCCUGGGUAAUGGCGAAUGGGACCCA [C4U C66G] the self-cleavage was 0.875. For GGCCGGCAUGGUCCCAGCCUCCUCGCAGGCGCCGGCUGGGCAACAUUCCGCGGGGACCGUCCCCUCGGUAAUGGCGAAUGGGACCCA [U27A A51C], the self-cleavage was 0.86. Work on GGCCGGCAUGGUCCCAGCCUACUCGCUGGCGCCGGCUAGGCAACAUUCCGAGGGGACCGUCCCCUCGGUAAUGGCGAAUGGGACCCA [C21A G38A] yielded a self-cleavage of 0.0237. For GGCCGGCAUGGUCCCAGUCUCCUCGCUGGCGCCGGCUGGGCCACAUUCCGAGGGGACCGUCCCCUCGGUAAUGGCGAAUGGGACCCA [C18U A42C], the self-cleavage was 0.185. GCCCGGCAUGGUCCCAGCCUGCUCGCUGGCGCCGGCUGGGCAACAUUCCGAGGGGACCGUCCCCUCGGUAAUGGCGAAUGGGACCCA [G2C C21G] gave a self-cleavage of 0.0396. With GGCCGGCAUGGUCCCAGCCUCCUCGCUGGCGCCGGCUGGGCAACAUUCCGAGGGGACCGUCCCCUCGGUAAUGGCGUAUGGGACCCA [A77U] the self-cleavage was 0.623. GGCCGGCAUGGUCCCAGCCUCCUCGCUGGCGCCGGCUGGGCAACAUUCUGAGGGGACCGUCCCCGCGGUAAUGGCGAAUGGGACCCA [C49U U65G] gave a self-cleavage of 0.939. With GGUCGGCAUGGUCCCAGCCUCCUCGCUGGCGCCGGCUGGGCAACGUUCCGAGGGGACCGUCCCCUCGGUAAUGGCGAAUGGGACCCA [C3U A45G] the self-cleavage was 0.607. Variant GGCCGGCAUGGUCCCAGCGUCCUCGCUGGCGCCGGCUGGGCAACAUUCCGAGGGGACCGUCCCCUCGGUAAUGGCGAAUGUGACCCA [C19G G81U] has a self-cleavage of 0.0997. GGCCGGCAUGGUCCCAGCCUCCUCGCUGGCACCGGCUGGGCAACAUUCAGAGGGGACCGUCCCCUCGGUAAUGGCGAAUGGGACCCA [G31A C49A] gave a self-cleavage of 0.353. GGCCGGCAUGGUCCCAGCCUCCUCGCUGGCGCCGGCUGGGCAACAAUCCGAGGGUACCGUCCCCUCGGUAAUGGCGAAUGGGACCCA [U46A G55U] gave a self-cleavage of 0.85. In the case of GGCCGGCAUGGUCCCAGCCUCCUCGCUGGCGCCGGCUGGGCAACACUCCGAGGGGACCGUCCCCUCGGUAAUGGCGAAUAGGACCCA [U46C G80A], the self-cleavage is reported as 0.185. GGCCGGCAUGGUCCUAGCCUCCUCGCUGGCGCCGGCUGGGCAGCAUUCCGAGGGGACCGUCCCCUCGGUAAUGGCGAAUGGGACCCA [C15U A43G] gave a self-cleavage of 0.138. Work on GGCCAGCAUGGUCCCAGCCUCCUCGCUGGCGCCGGCUGGGCAACAUUCCGAGGGGACCGUCCCCUCGGUAAUGGCGAAGGGGACCCA [G5A U79G] yielded a self-cleavage of 0.0923. Variant GGCCGGCAUGGUCCCAGCCUCCUCGCUGGCGCCGGCUGGGCAACAUUCCGAGGGGACCGUCCCAUCGGUAAUUGCGAAUGGGACCCA [C64A G73U] has a self-cleavage of 0.332. Variant GGCCGGCAUGGUCCCAGCCUCCCCGCUGCCGCCGGCUGGGCAACAUUCCGAGGGGACCGUCCCCUCGGUAAUGGCGAAUGGGACCCA [U23C G29C] has a self-cleavage of 0.0475. Work on GGCCGGCAUGGUCCCAGCCACCUCGCUGGCGCCGGCUGGGCAACAUUCCGAGGGGAACGUCCCCUCGGUAAUGGCGAAUGGGACCCA [U20A C57A] yielded a self-cleavage of 0.0978. In the case of GGCCGGCAUGGUCCCAGCCUCCUCGCUGGCGCCGGCUGGGCAACAUUCCGAGGGGACCGUCCCCUCGGUAACGACGAAUGGGACCCA [U72C G74A], the self-cleavage is reported as 0.363. Work on GGCCGGCAGGGUCCCAGCCUCCUCGCUGGCGCCGGCUGAGCAACAUUCCGAGGGGACCGUCCCCUCGGUAAUGGCGAAUGGGACCCA [U9G G39A] yielded a self-cleavage of 0.475. In the case of GGCCGGCAUGAUCCCAGCCUCCUCGCUGGCGCCGUCUGGGCAACAUUCCGAGGGGACCGUCCCCUCGGUAAUGGCGAAUGGGACCCA [G11A G35U], the self-cleavage is reported as 0.149. GGCCGUCAUGGUCCCAGCCUCCUCGCUGGCGCCGGCUGGGCAACAUUCCGAGGGGACGGUCCCCUCGGUAAUGGCGAAUGGGACCCA [G6U C58G] gave a self-cleavage of 0.628. With GGCCGGCAUGGUCCCAGCCUCCUCGCUGGCGACGGCUGAGCAACAUUCCGAGGGGACCGUCCCCUCGGUAAUGGCGAAUGGGACCCA [C32A G39A] the self-cleavage was 0.0563. Work on GGCCGGCAUGGUCCCAGCGUCCUCGCUGGCGGCGGCUGGGCAACAUUCCGAGGGGACCGUCCCCUCGGUAAUGGCGAAUGGGACCCA [C19G C32G] yielded a self-cleavage of 0.0462. Work on GGCCGGCAUGGUCCCAGCCUCCUGGCUGGCGCCGGCUGAGCAACAUUCCGAGGGGACCGUCCCCUCGGUAAUGGCGAAUGGGACCCA [C24G G39A] yielded a self-cleavage of 0.0845.
